T1: orthogonal hCD122 receptor (hoRb), hCD122 with H133D and Y134F (human, UniProt P14784 27-550)
T1 sequence: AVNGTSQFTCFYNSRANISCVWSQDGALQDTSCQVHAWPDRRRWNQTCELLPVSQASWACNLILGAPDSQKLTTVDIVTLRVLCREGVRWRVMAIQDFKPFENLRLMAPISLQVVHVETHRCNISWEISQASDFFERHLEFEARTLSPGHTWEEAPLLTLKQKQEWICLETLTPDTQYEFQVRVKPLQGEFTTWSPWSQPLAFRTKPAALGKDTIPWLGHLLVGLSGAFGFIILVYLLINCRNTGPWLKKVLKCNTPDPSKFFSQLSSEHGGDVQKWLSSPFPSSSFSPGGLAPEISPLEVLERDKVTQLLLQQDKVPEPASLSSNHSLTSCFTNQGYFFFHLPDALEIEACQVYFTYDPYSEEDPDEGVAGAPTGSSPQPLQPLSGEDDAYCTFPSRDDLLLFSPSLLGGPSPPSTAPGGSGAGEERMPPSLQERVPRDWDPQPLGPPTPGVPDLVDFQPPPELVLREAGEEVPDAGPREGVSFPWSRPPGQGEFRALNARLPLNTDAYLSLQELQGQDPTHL


Key:
[1] = target: T1, orthogonal hCD122 receptor (hoRb), …; assay: cell-based or functional assay
[2] = target: T1, orthogonal hCD122 receptor (hoRb), …; assay: cell-based or functional assay; remark: listed apart in the source
For Relative Proliferation Fold Change 3F8 1:10 in this document: reference of the scale not given here.
For Relative Proliferation Fold Change 3F8 1:2 in this document: reference of the scale not given here.
For Relative Proliferation Fold Change 3F8 1:50 in this document: reference of the scale not given here.
For Relative Proliferation Fold Change NKL 1:10 in this document: reference of the scale not given here.
For Relative Proliferation Fold Change NKL 1:2 in this document: reference of the scale not given here.
For Relative Proliferation Fold Change NKL 1:50 in this document: reference of the scale not given here.

Binder | NKL Ortho Proliferation Signal 1:2 [1] | NKL Ortho Proliferation Signal 1:10 [1] | NKL Ortho Proliferation Signal 1:50 [1] | Relative Proliferation Fold Change NKL 1:2 [1] | Relative Proliferation Fold Change NKL 1:10 [1] | Relative Proliferation Fold Change NKL 1:50 [1] | 3F8 Ortho Proliferation Signal 1:2 [2] | 3F8 Ortho Proliferation Signal 1:10 [2] | 3F8 Ortho Proliferation Signal 1:50 [2] | Relative Proliferation Fold Change 3F8 1:2 [2] | Relative Proliferation Fold Change 3F8 1:10 [2] | Relative Proliferation Fold Change 3F8 1:50 [2]
I86V, SQVLKA (ligand) APTSSSTKKTQLQLSQLLVLLKAILNGINNYKNPKLTRMLTFKFYMPKKATELKHLQCLEEELKPLEEVLNLAQSKNFHLRPRDLVSNINVIVLELKGSETTFMCEYADETATIVEFLNRWITFCQSIISTLT | 39900 | 38000 | 18400 | 3.82 fold | 2.67 fold | 1.42 fold | 34000 cts/min | 32600 cts/min | 15100 cts/min | 0.8 fold | 3.76 fold | 3.66 fold
Δ88N, SQVLKA (ligand) APTSSSTKKTQLQLSQLLVLLKAILNGINNYKNPKLTRMLTFKFYMPKKATELKHLQCLEEELKPLEEVLNLAQSKNFHLRPRDLISINVIVLELKGSETTFMCEYADETATIVEFLNRWITFCQSIISTLT | 4610 | 7470 | 6690 | 0.42 fold | 0.59 fold | 0.58 fold | 486 cts/min | 580 cts/min | 666 cts/min | 2.59 fold | 0.79 fold | 1.33 fold
N88E, SQVLKA (ligand) APTSSSTKKTQLQLSQLLVLLKAILNGINNYKNPKLTRMLTFKFYMPKKATELKHLQCLEEELKPLEEVLNLAQSKNFHLRPRDLISEINVIVLELKGSETTFMCEYADETATIVEFLNRWITFCQSIISTLT | 6410 | 7090 | 6480 | 0.49 fold | 0.53 fold | 0.51 fold | 326 cts/min | 588 cts/min | 850 cts/min | 1 fold | 1.2 fold | 1.44 fold
ΔT3, SQVLKA (ligand) APSSSTKKTQLQLSQLLVLLKAILNGINNYKNPKLTRMLTFKFYMPKKATELKHLQCLEEELKPLEEVLNLAQSKNFHLRPRDLISNINVIVLELKGSETTFMCEYADETATIVEFLNRWITFCQSIISTLT | 60800 | 64600 | 32300 | 4 fold | 3.73 fold | 1.99 fold | 38900 cts/min | 34800 cts/min | 16000 cts/min | 30.5 fold | 15.1 fold | 7.52 fold
N88Q, SQVLKA (ligand) APTSSSTKKTQLQLSQLLVLLKAILNGINNYKNPKLTRMLTFKFYMPKKATELKHLQCLEEELKPLEEVLNLAQSKNFHLRPRDLISQINVIVLELKGSETTFMCEYADETATIVEFLNRWITFCQSIISTLT | 4980 | 6960 | 6240 | 0.43 fold | 0.53 fold | 0.5 fold | 644 cts/min | 914 cts/min | 1070 cts/min | 1.25 fold | 0.84 fold | 0.6 fold
